According to publication PMC9843812, “The ybcF Gene of Escherichia coli Encodes a Local Orphan Enzyme, Catabolic Carbamate Kinase” (Journal of Microbiology and Biotechnology, 2022):

Assays:
[1] = substrate: NC(=O)OP(=O)(O)O; assay: ATP formation measured by firefly luciferase luminescence, Michaelis-Menten / Lineweaver-Burk; type: biochemical, Escherichia coli; details: 2 mM ADP fixed, CP 0-3 mM, 30 mM MgCl2, 20 mM Tris-Cl pH 8, 28 °C, 60 min, 100 nM enzyme
[2] = substrate: Nc1ncnc2c1ncn2[C@@H]1O[C@H](COP(=O)(O)OP(=O)(O)O)[C@@H](O)[C@H]1O; assay: as above; type: biochemical, Escherichia coli; details: 2 mM CP fixed, ADP 0-3 mM, 30 mM MgCl2, 20 mM Tris-Cl pH 8, 28 °C, 60 min, 100 nM enzyme

B1: YbcF (catabolic carbamate kinase, CK; proposed AllK) (Escherichia coli K-12) (protein)
chain: MKTLVVALGGNALLQRGEALTAENQYRNIASAVPALARLARSYRLAIVHGNGPQVGLLALQNLAWKEVEPYPLDVLVAESQGMIGYMLAQSLSAQPQMPPVTTVLTRIEVSPDDPAFLQPEKFIGPVYQPEEQEALEAAYGWQMKRDGKYLRRVVASPQPRKILDSEAIELLLKEGHVVICSGGGGVPVTDDGAGSEAVIDKDLAAALLAEQINADGLVILTDADAVYENWGTPQQRAIRHATPDELAPFAKADGSMGPNVTAVSGYVRSRGKPAWIGALSRIEETLAGEAGTCISL
B1 showed a Km [1] of 0.47 mM and a Km [2] of 0.43 mM.
